Reference: the FLAb antibody collection (doi:10.7554/elife.23156)

B1: scFv; the commonest letter at each place (parent)
chain 1: EVKLDETGGGLVQPGRPMKLSCVASGFTFSDYWMNWVRQSPEKGLEWVAQIRNKPYNYETYYSDSVKGRFTISRDDSKSSVYLQMNNLRVEDMGIYYCTGSYYGMDYWGQGTSVTVS
chain 2: DVVMTQTPLSLPVSLGDQASISCRSSQSLVHSNGNTYLRWYLQKPGQSPKVLIYKVSNRFSGVPDRFSGSGSGTDFTLKISRVEAEDLGVYFCSQSTHVPWTFGGGTKLEIK

Assays:
fluorescein = variants of: B1; assay: Kd (Tite-Seq); settings: with fluorescein; format: scFv 4-4-20, heavy + light
[1] = variants of: B1; assay: yeast surface expression (ratio to wild type); higher = more expressed; settings: format: scFv 4-4-20, heavy + light

Kd (fluorescein)	Variant	yeast surface expression [1]
0.00746 µM	chain 1 Y103M W108A	0.484
≥ 10 µM	chain 1 T28A W33R M34S	1.12
≥ 10 µM	chain 1 T28Y N35E	0.319
≥ 10 µM	chain 1 S101D Y107E	1.03
≥ 10 µM	chain 1 D31R M34S	0.507
≥ 10 µM	chain 1 Y103S W108R	0.441
≥ 10 µM	chain 1 G100T D106A	0.704
≥ 10 µM	chain 1 G100T D106V	0.468
0.0038 µM	chain 1 G100S	0.938
≥ 10 µM	chain 1 Y102Q M105D	0.932
≥ 10 µM	chain 1 G100C G104I	0.267
≥ 10 µM	chain 1 S101L Y102W	0.407
≥ 10 µM	chain 1 D106Y	0.51
≥ 10 µM	chain 1 T28L W33Y	0.826
0.00251 µM	chain 1 M105W	0.648
0.0767 µM	chain 1 T28S D31C	0.771
≥ 10 µM	chain 1 G104N	1.1
≥ 10 µM	chain 1 G104E	1.04
≥ 10 µM	chain 1 G100F Y107I	0.947
≥ 10 µM	chain 1 G104Q Y107V	0.941
≥ 10 µM	chain 1 F29P W36A	0.456
≥ 10 µM	chain 1 S101T Y102H	0.748
0.15 µM	chain 1 G100W W108V	0.251
≥ 10 µM	chain 1 Y32W W36A	0.204

Kd (fluorescein)	Variant	yeast surface expression [1]
2.88 µM	chain 1 M105W W108K	0.363
≥ 10 µM	chain 1 S101I Y103T W108D	0.293
≥ 10 µM	chain 1 Y103N M105G Y107M	0.836
0.0104 µM	chain 1 Y107N	0.775
≥ 10 µM	chain 1 Y107P	0.414
≥ 10 µM	chain 1 T28A W33R N35I	0.622
0.00638 µM	chain 1 T28C D31S	0.694
≥ 10 µM	chain 1 W36F V37Y	0.738
≥ 10 µM	chain 1 F29E D31G N35R	0.621
≥ 10 µM	chain 1 W108N G109N	0.335
≥ 10 µM	chain 1 Y102L G104W	0.263
≥ 10 µM	chain 1 Y103M D106F Y107G	0.265
≥ 10 µM	chain 1 G104R G109C	0.5
0.0302 µM	chain 1 D31G Y32L	0.645
≥ 10 µM	chain 1 D106L W108M	0.541
≥ 10 µM	chain 1 G100V D106Q	0.639
≥ 10 µM	chain 1 G100V S101I	0.653
≥ 10 µM	chain 1 Y32A W36N	1.17
0.00575 µM	chain 1 T28Q D31A	0.845
6.61 µM	chain 1 D106A Y107I	0.646
≥ 10 µM	chain 1 D31E Y32P	0.77
8.13 µM	chain 1 D31E Y32M	0.789
≥ 10 µM	chain 1 Y107I G109K	0.234
0.0166 µM	chain 1 Y103E	0.857

Kd (fluorescein)	Variant	yeast surface expression [1]
0.228 µM	chain 1 Y103W	0.862
≥ 10 µM	chain 1 Y102G M105V	1.02
≥ 10 µM	chain 1 Y103E D106P	0.413
≥ 10 µM	chain 1 S101W Y103R G104S	0.468
≥ 10 µM	chain 1 M105P G109I	0.208
≥ 10 µM	chain 1 Y32E W36N	1.09
1.14 µM	chain 1 F29T Y32R	1.06
≥ 10 µM	chain 1 F29T Y32P	0.901
0.0017 µM	chain 1 T28E	1.04
0.00128 µM	chain 1 T28V	1
0.000504 µM	chain 1 T28I	1.07
0.000743 µM	chain 1 T28P	0.989
0.00138 µM	chain 1 T28R	0.917
0.00444 µM	chain 1 T28F	0.842
≥ 10 µM	chain 1 G100R G104V M105S	0.211
≥ 10 µM	chain 1 D106T G109R	0.26
≥ 10 µM	chain 1 F29I N35A	0.817
≥ 10 µM	chain 1 F29W D31F	0.475
≥ 10 µM	chain 1 G100T M105T	0.909
≥ 10 µM	chain 1 M34S N35H	0.536
≥ 10 µM	chain 1 Y32T W36R	0.193
≥ 10 µM	chain 1 N35E V37Q	0.427
≥ 10 µM	chain 1 S30N N35T	0.803
≥ 10 µM	chain 1 M34Y N35V	0.434

Kd (fluorescein)	Variant	yeast surface expression [1]
0.0107 µM	chain 1 M34I W36F	0.811
≥ 10 µM	chain 1 F29V N35D	0.862
0.0146 µM	chain 1 Y103I M105W	0.528
≥ 10 µM	chain 1 Y103W M105T	0.915
≥ 10 µM	chain 1 F29V W36S	0.52
≥ 10 µM	chain 1 F29V W36L	0.332
≥ 10 µM	chain 1 Y102H M105P	0.764
≥ 10 µM	chain 1 T28P Y32D W36I	0.789
≥ 10 µM	chain 1 Y102D D106Q	0.733
≥ 10 µM	chain 1 D31L Y32N	0.847
≥ 10 µM	chain 1 G104C Y107F	0.291
0.0507 µM	chain 1 S30F Y32H	0.679
≥ 10 µM	chain 1 T28V Y32S V37F	0.818
6.96 µM	chain 1 N35K V37K	0.0981
≥ 10 µM	chain 1 G100V Y107N G109P	0.341
≥ 10 µM	chain 1 W33R W36Y	0.561
0.00184 µM	chain 1 M34I V37Q	0.474
≥ 10 µM	chain 1 S30C W36E	0.214
≥ 10 µM	chain 1 Y102M D106T	1.07
≥ 10 µM	chain 1 F29K Y32G	0.778
≥ 10 µM	chain 1 Y102Q G109D	0.485
2.47 µM	chain 1 Y102C G109A	0.619
≥ 10 µM	chain 1 Y102H G104F	0.598
≥ 10 µM	chain 1 T28N N35V	0.666

Kd (fluorescein)	Variant	yeast surface expression [1]
≥ 10 µM	chain 1 W36V	0.715
≥ 10 µM	chain 1 S101Q Y102D W108I	0.495
≥ 10 µM	chain 1 W33E N35K	0.455
≥ 10 µM	chain 1 G104P Y107M G109M	0.257
≥ 10 µM	chain 1 D106W W108F	0.225
≥ 10 µM	chain 1 D106W W108K	0.243
≥ 10 µM	chain 1 Y32E V37Y	0.806
≥ 10 µM	chain 1 G100R S101I	0.352
0.55 µM	chain 1 D106S W108V	0.859
≥ 10 µM	chain 1 S101H M105V	0.592
≥ 10 µM	chain 1 F29I V37D	1.12
≥ 10 µM	chain 1 N35C V37L	0.527
≥ 10 µM	chain 1 F29C W36V	0.635
0.0015 µM	chain 1 T28D S30P	1.24
≥ 10 µM	chain 1 G104S Y107G	0.303
≥ 10 µM	chain 1 G104S Y107S	0.437
≥ 10 µM	chain 1 M105R G109W	0.232
≥ 10 µM	chain 1 G104Q Y107G W108I	0.271
≥ 10 µM	chain 1 Y103A D106I W108P	0.344
0.00158 µM	chain 1 Y102W Y107F	0.61
